US20050048060A1 (VLAAMS INTERUNIVERSITAIR INSTITUUT, published 2005)

Target: T1, carcinoembryonic antigen (CEA) expressed on LS 174T cells (human, UniProt P06731 35-685)
T1 sequence (looked up): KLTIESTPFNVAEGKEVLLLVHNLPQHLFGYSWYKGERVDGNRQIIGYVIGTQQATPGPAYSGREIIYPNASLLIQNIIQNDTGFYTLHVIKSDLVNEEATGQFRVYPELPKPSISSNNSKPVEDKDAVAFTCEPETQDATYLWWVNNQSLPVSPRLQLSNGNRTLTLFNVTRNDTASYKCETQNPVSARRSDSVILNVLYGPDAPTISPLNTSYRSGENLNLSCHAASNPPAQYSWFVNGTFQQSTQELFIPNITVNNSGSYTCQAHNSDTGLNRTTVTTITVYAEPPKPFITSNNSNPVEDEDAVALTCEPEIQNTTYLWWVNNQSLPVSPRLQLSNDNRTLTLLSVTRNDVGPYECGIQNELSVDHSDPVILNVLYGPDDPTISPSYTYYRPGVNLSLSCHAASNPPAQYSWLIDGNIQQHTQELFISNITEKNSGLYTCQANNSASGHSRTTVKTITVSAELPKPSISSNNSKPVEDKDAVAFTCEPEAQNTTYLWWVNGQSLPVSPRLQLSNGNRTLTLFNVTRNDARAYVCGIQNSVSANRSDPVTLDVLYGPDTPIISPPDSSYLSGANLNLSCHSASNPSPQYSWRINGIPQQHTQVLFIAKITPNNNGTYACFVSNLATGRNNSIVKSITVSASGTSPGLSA
Assay: cell-based or functional assay

B1: cAb-CEA5-βL conjugate (other)
chain: QVQLVESGGGSVQAGGSLRLSCAASGDTYGSYWMGWFRQAPGKEREGVAAINRGGGYTVYADSVKGRFTISRDTAKNTVYLQMNSLRPDDTADYYCAASGVLGGLHEDWFNYWGQGTQVTVSSAHHSEDPSSKAPKAPMGTPVSEKQLAEVVANTITPLMKAQSVPGMAVAVIYQGKPHYYTFGKADIAANKPVTPQTLFELGSISKTFTGVLGGDAIARGEISLDDAVTRYWPQLTGKQWQGIRMLDLATYTAGGLPLQVPDEVTDNASLLRFYQNWQPQWKPGTTRLYANASIGLFGALAVKPSGMPYEQAMTTRVLKPLKLDHTWINVPKAEEAHYAWGYRDGKAVRVSPGMLDAQAYGVKTNVQDMANWVMANMAPENVADASLKQGIALAQSRYWRIGSMYQGLGWEMLNWPVEANTVVEGSDSKVALAPLPVAEVNPPAPPVKASWVHKTGSTGGFGSYVAFIPEKQIGIVMLANTSYPNPARVEAAYHILEALQHHHHHH
concentration of 125I-labelled conjugate in LS 174T tumor xenografts against other tissues in nude mice: > 10 fold
